According to paper PMC10344970:

Assays:
Experiment in all cases: purified protein
[1] = system: CC(C)=CCC/C(C)=C/COP(=O)(O)OP(=O)(O)O; settings: co-substrate 1-hydroxynaphthalene (1), 50 mM Tris-HCl, 10 mM CaCl2, 5% DMSO, 37 °C, 15 min, substrate inhibition at 1.0 mM or higher
[2] = system: Oc1ccc2c(O)cccc2c1; settings: co-substrate 1 mM DMAPP, 50 mM Tris-HCl, 10 mM CaCl2, 5% DMSO, 37 °C, 15 min
[3] = system: Oc1ccc2cccc(O)c2c1; settings: co-substrate 1 mM DMAPP, 50 mM Tris-HCl, 10 mM CaCl2, 5% DMSO, 37 °C, 15 min

Substance: ShPT (Stereum hirsutum FP-91666 SS1)
- Km [1]: 1010 ± 50 µM
- kcat [1]: 0.36 ± 0.01 s⁻¹
- kcat/Km [1]: 357 M⁻¹ s⁻¹
- Km [2]: 660 ± 100 µM
- kcat [2]: 0.13 ± 0.01 s⁻¹
- kcat/Km [2]: 197 M⁻¹ s⁻¹
- Km [3]: 920 ± 10 µM
- kcat [3]: 0.46 ± 0.04 s⁻¹
- kcat/Km [3]: 511 M⁻¹ s⁻¹
